Assay results taken from the supplement of paper PMC10065799, “High-throughput profiling of sequence recognition by tyrosine kinases and SH2 domains using bacterial peptide display” (eLife, 2023).

Each sequence was assayed on c-Src (assay: phosphorylation enrichment, bacterial display (enrichment ratio); higher = better substrate or ligand; peptides without Tyr show the background).
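Wherever SH2 binding enrichment of the phosphorylated peptide, bacterial display is given: peptide library displayed on the E. coli surface as eCPX fusions, selected cells deep-sequenced, score is each peptide's frequency after selection divided by its frequency in the input.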
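Wherever phosphorylation enrichment, bacterial display is given: 11-residue human phosphosite peptides and single-mutation variants displayed on the E. coli surface, counted by deep sequencing, each peptide's frequency after selection divided by its frequency in the unselected input library; frequency after pTyr selection over input frequency; kinase dosed for 20-30% of maximal phosphorylation in three min.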

With SARFRYLMAEK [LDHB_Y173] as the sequence, how does the phosphorylation enrichment read?
The phosphorylation enrichment was 0.436.

For LLILEYAKFGS [RET_Y806_V804L_YF], which phosphorylation enrichment is on record?
The phosphorylation enrichment was 0.976.

Which phosphorylation enrichment does the source give for SGVNKYSTAFG [GJB3_Y16] here?
The phosphorylation enrichment was 0.434.

For LERFIYNREEF [HLA-DPB1_Y59_F64Y_YF], which phosphorylation enrichment is on record?
The phosphorylation enrichment was 2.07.

NSGFFYKTAEE [CCT6B_Y250] was tested. Which phosphorylation enrichment did it give?
The phosphorylation enrichment was 0.476.

Which phosphorylation enrichment does the source give for HGEAFYSEVKP [PAK5_Y182_YF] here?
The phosphorylation enrichment was 2.27.

QDDTVYMGKVT [DCTN1_Y1244] was tested. Which phosphorylation enrichment did it give?
Its phosphorylation enrichment is 0.917.

For TQPSPYAVFRF [RPGRIP1_Y823_YF], which phosphorylation enrichment is on record?
Its phosphorylation enrichment is 7.72.

Which phosphorylation enrichment does the source give for LGNIVYSSLCG [BCOR_Y90_P85L] here?
The phosphorylation enrichment was 5.82.

With LHRHAYPEQRQ [DPPA2_Y127] as the sequence, how does the phosphorylation enrichment read?
Its phosphorylation enrichment is 0.449.

Which phosphorylation enrichment does the source give for RLLVVYHWTQR [HBD_Y36_P37H] here?
The phosphorylation enrichment was 0.566.

RKEAQYMLENE [SLC16A6_Y224] was tested. Which phosphorylation enrichment did it give?
The phosphorylation enrichment was 0.899.

With TGEKPYECVQC [ZNF24_Y335] as the sequence, how does the phosphorylation enrichment read?
Its phosphorylation enrichment is 0.501.

With FIGVTYKNKED [PDGFRA_Y993_E996K_YF] as the sequence, how does the phosphorylation enrichment read?
Its phosphorylation enrichment is 0.426.

How did the phosphorylation enrichment turn out when CTTIHYNYMCI [TP53_Y234_N239I] was run?
Its phosphorylation enrichment is 0.462.

For TTGGFYSFGGG [KRT24_Y120_A115T_YF], which phosphorylation enrichment is on record?
Its phosphorylation enrichment is 1.67.

With KAPVDYIRKLQ [MITF_Y360_S357P] as the sequence, how does the phosphorylation enrichment read?
Its phosphorylation enrichment is 0.406.

Which phosphorylation enrichment does the source give for IFCIQYNICAF [MYH4_Y820_R823C] here?
The phosphorylation enrichment was 0.513.

How did the phosphorylation enrichment turn out when GGDQPYSGAGD [TYRO3_Y828_R824G] was run?
Its phosphorylation enrichment is 0.432.

With NGEDLYAGSTD [XRCC1_Y515_P514L] as the sequence, how does the phosphorylation enrichment read?
The phosphorylation enrichment was 0.807.

PGVNYYFQVSA was tested. Which phosphorylation enrichment did it give?
The phosphorylation enrichment was 0.692.

For ALAHKHHGGGG [HBB_Y146_Y146H], which phosphorylation enrichment is on record?
Its phosphorylation enrichment is 0.505.

With VEKGSYSALLA [ABCC2_Y845] as the sequence, how does the phosphorylation enrichment read?
The phosphorylation enrichment was 0.493.

For FDEFRYRSFIK [CFTR_Y517_V520F_YF], which phosphorylation enrichment is on record?
Its phosphorylation enrichment is 0.419.

Which phosphorylation enrichment does the source give for RTEAQYRFIFM [PTPN11_Y511_Q506R_YF] here?
Its phosphorylation enrichment is 0.445.

For ETKTPYTVILI [SBDS_Y128_R126T], which phosphorylation enrichment is on record?
Its phosphorylation enrichment is 0.485.

How did the phosphorylation enrichment turn out when RLVTRYIYNRE [HLA-DQB1_Y62_Y58L] was run?
Its phosphorylation enrichment is 0.532.

Which phosphorylation enrichment does the source give for SLLTDCSPQLQ [OTC_Y345_Y345C] here?
The phosphorylation enrichment was 0.475.

Which phosphorylation enrichment does the source give for SSREEYFIGGG [GYPC_Y126_K124E] here?
Its phosphorylation enrichment is 0.655.

How did the phosphorylation enrichment turn out when LKRCQYVTEKV [ALDOA_Y204] was run?
Its phosphorylation enrichment is 0.796.

How did the phosphorylation enrichment turn out when PCPANYFAFKI [FAM3D_Y65] was run?
Its phosphorylation enrichment is 4.44.

With IYHLSYIHNCE [PDE6B_Y227_L228I] as the sequence, how does the phosphorylation enrichment read?
Its phosphorylation enrichment is 2.65.

For GVASDYKCVDP [VPS13B_Y1991_I1994V], which phosphorylation enrichment is on record?
The phosphorylation enrichment was 0.458.

What follows are sequences tested against Grb2 SH2 (UniProt P62993) (assay: SH2 binding enrichment of the phosphorylated peptide, bacterial display (enrichment ratio); higher = better substrate or ligand; peptides without Tyr show the background).
Chain of Grb2 SH2 (P62993 whole entry, looked up): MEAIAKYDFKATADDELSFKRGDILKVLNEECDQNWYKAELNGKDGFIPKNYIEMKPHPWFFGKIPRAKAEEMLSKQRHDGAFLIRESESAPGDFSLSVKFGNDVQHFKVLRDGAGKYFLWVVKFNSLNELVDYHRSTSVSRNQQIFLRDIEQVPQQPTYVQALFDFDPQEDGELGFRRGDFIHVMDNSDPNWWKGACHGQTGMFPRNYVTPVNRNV

Which SH2 binding enrichment does the source give for SARFRYLMAEK [LDHB_Y173] here?
Its SH2 binding enrichment is 0.952.

Which SH2 binding enrichment does the source give for LLILEYAKFGS [RET_Y806_V804L_YF] here?
The SH2 binding enrichment was 2.19.

How did the SH2 binding enrichment turn out when SGVNKYSTAFG [GJB3_Y16] was run?
Its SH2 binding enrichment is 0.84.

For LERFIYNREEF [HLA-DPB1_Y59_F64Y_YF], which SH2 binding enrichment is on record?
Its SH2 binding enrichment is 0.704.

How did the SH2 binding enrichment turn out when NSGFFYKTAEE [CCT6B_Y250] was run?
Its SH2 binding enrichment is 0.734.

For HGEAFYSEVKP [PAK5_Y182_YF], which SH2 binding enrichment is on record?
The SH2 binding enrichment was 0.887.

For QDDTVYMGKVT [DCTN1_Y1244], which SH2 binding enrichment is on record?
The SH2 binding enrichment was 1.04.

TQPSPYAVFRF [RPGRIP1_Y823_YF] was tested. Which SH2 binding enrichment did it give?
Its SH2 binding enrichment is 1.

Which SH2 binding enrichment does the source give for LGNIVYSSLCG [BCOR_Y90_P85L] here?
The SH2 binding enrichment was 0.778.

Which SH2 binding enrichment does the source give for LHRHAYPEQRQ [DPPA2_Y127] here?
The SH2 binding enrichment was 1.14.

Which SH2 binding enrichment does the source give for RLLVVYHWTQR [HBD_Y36_P37H] here?
The SH2 binding enrichment was 1.49.

Which SH2 binding enrichment does the source give for RKEAQYMLENE [SLC16A6_Y224] here?
The SH2 binding enrichment was 0.8.

TGEKPYECVQC [ZNF24_Y335] was tested. Which SH2 binding enrichment did it give?
Its SH2 binding enrichment is 0.81.

With FIGVTYKNKED [PDGFRA_Y993_E996K_YF] as the sequence, how does the SH2 binding enrichment read?
Its SH2 binding enrichment is 1.08.

How did the SH2 binding enrichment turn out when CTTIHYNYMCI [TP53_Y234_N239I] was run?
Its SH2 binding enrichment is 1.87.

TTGGFYSFGGG [KRT24_Y120_A115T_YF] was tested. Which SH2 binding enrichment did it give?
The SH2 binding enrichment was 0.654.

With KAPVDYIRKLQ [MITF_Y360_S357P] as the sequence, how does the SH2 binding enrichment read?
The SH2 binding enrichment was 0.912.

IFCIQYNICAF [MYH4_Y820_R823C] was tested. Which SH2 binding enrichment did it give?
The SH2 binding enrichment was 1.7.

With GGDQPYSGAGD [TYRO3_Y828_R824G] as the sequence, how does the SH2 binding enrichment read?
The SH2 binding enrichment was 0.872.

With NGEDLYAGSTD [XRCC1_Y515_P514L] as the sequence, how does the SH2 binding enrichment read?
The SH2 binding enrichment was 0.834.

PGVNYYFQVSA was tested. Which SH2 binding enrichment did it give?
The SH2 binding enrichment was 1.04.

With ALAHKHHGGGG [HBB_Y146_Y146H] as the sequence, how does the SH2 binding enrichment read?
Its SH2 binding enrichment is 0.771.

VEKGSYSALLA [ABCC2_Y845] was tested. Which SH2 binding enrichment did it give?
Its SH2 binding enrichment is 0.663.

FDEFRYRSFIK [CFTR_Y517_V520F_YF] was tested. Which SH2 binding enrichment did it give?
Its SH2 binding enrichment is 0.702.

RTEAQYRFIFM [PTPN11_Y511_Q506R_YF] was tested. Which SH2 binding enrichment did it give?
Its SH2 binding enrichment is 0.665.

Which SH2 binding enrichment does the source give for ETKTPYTVILI [SBDS_Y128_R126T] here?
Its SH2 binding enrichment is 0.671.

RLVTRYIYNRE [HLA-DQB1_Y62_Y58L] was tested. Which SH2 binding enrichment did it give?
The SH2 binding enrichment was 0.836.

How did the SH2 binding enrichment turn out when SLLTDCSPQLQ [OTC_Y345_Y345C] was run?
The SH2 binding enrichment was 0.975.

SSREEYFIGGG [GYPC_Y126_K124E] was tested. Which SH2 binding enrichment did it give?
The SH2 binding enrichment was 0.836.

Which SH2 binding enrichment does the source give for LKRCQYVTEKV [ALDOA_Y204] here?
The SH2 binding enrichment was 0.742.

How did the SH2 binding enrichment turn out when PCPANYFAFKI [FAM3D_Y65] was run?
Its SH2 binding enrichment is 1.03.

How did the SH2 binding enrichment turn out when IYHLSYIHNCE [PDE6B_Y227_L228I] was run?
Its SH2 binding enrichment is 1.35.

GVASDYKCVDP [VPS13B_Y1991_I1994V] was tested. Which SH2 binding enrichment did it give?
Its SH2 binding enrichment is 0.845.
